In patent US20170327854A1, “METHODS FOR CELLOBIOSAN UTILIZATION” (Alliance for Sustainable Energy, LLC, priority 2015, published 2017):

Tests used:
P. putida strain FJPO3 = experiment: Growth and mcl-PHA production of strain FJPO3 on levoglucosan; assay type: cell-based, Pseudomonas putida
Description: The levoglucosan kinase (lgk) gene from Lipomyces starkeyi was codon optimized using Gene Designer software from DNA 2.0 and synthesized as a gBlock (SEQ ID NO:1). This fragment was cloned into plasmid pMFL76, which is derived from the commercial PCR-Blunt II Topo vector (ThermoFisher), with the addition of two 1-kb genomic regions located in proximity of the rpoS region of the genome from Pseudomonas putida KT2440 to enable homologous recombination mediated genomic integration into strain KT2440. The Ptac-lgk was inserted in between these 1 kb homology regions and transformed into KT2440. A single kanamycin-resistant transformant was isolated and growth in M9 levoglucosan was confirmed, to generate strain FJPO3.
P. putida produces medium chain-length polyhydroxy-alkanoates (mcl-PHAs), which are high-value polymers that can serve as plastics, adhesive precursors, and as precursors to chemical building blocks or hydrocarbons. As mcl-PHAs represent a potential target to generate from pyrolytic sugars, the generation of mcl-PHAs by P. putida using levoglucosan as its sole carbon source as investigated.
Most growths were in a modified formulation of M9 minimal salts. Briefly, 6.78 g Na2PO4 (anhydrous), 3 g KH2PO4, and 0.5 g NaCl were dissolved in 750 mL deionized H2O. The pH was adjusted to 7.4 with 10 N NaOH and brought to 900 mL with H2O. The solution was autoclaved for 15 minutes at 121° C. and allowed to cool. […]
Growth curves were generated using a Bioscreen C automated microbiology growth curve analysis system from Growth Curves USA. […] Spectrophotometric blanks were subtracted from the measured values and each growth curve represents the average of three independent cultures. The maximum specific growth rate (μmax) was calculated as the maximum slope of the log phase of the growth curve over any given 4 hour period during the course of the experiment. […]
One mL of saturated cultures was centrifuged at 5,000×g for 5 minutes. […] Nile Red fluorescence was detected between 560 and 590 nm using band-pass filtering.

[1] = β-Glucosidase mediated cleavage of cellobiosan (HPLC); assay type: biochemical; details: cellobiosan 2 mg/mL, 2.5 to 20 μg of enzyme (four enzyme loadings), 40° C., 90 minutes, FIG. 5
Experimental: (§1) Following the β-glucosidase reaction period, the tubes were placed on ice, filtered through a 0.2 μm filter and analyzed via High-Performance Liquid Chromatography (HPLC; Agilent 1100 series system (Agilent USA, Santa Clara, Calif.)) using a Shodex SP0810 carbohydrate column with de-ashing guard cartridges (BioRad Laboratories, Hercules, Calif.) run at 85° C. with ultra-pure water as the isocratic mobile phase at a flow rate of 0.6 mL/min. A refractive index detector was used for compound detection. By-products were identified by co-elution at the same retention time with pure compounds. Standard curves for substrate (cellobiosan) and products (glucose and levoglucosan) were also generated in order to quantify results. Additionally, enzymes were analyzed via HPLC in buffer alone (without cellobiosan) to ensure no carry-over products inherent to the enzyme preparations.
Each reaction was set up in 1.5 mL microcentrifuge tubes using cellobiosan at a concentration of 2 mg/mL in the following buffers: 50 mM sodium maleate, pH 6.5 (T. maritima and Agrobacterium sp.), and 100 mM sodium acetate, pH 5.0 (P. chrysosporium and A. niger). For each reaction, 2.5 to 20 μg of enzyme was loaded and the total reaction volume was 400 μL. An additional enzyme-free reaction was run simultaneously to ensure cellobiosan cleavage was enzyme-dependent. Reactions were incubated at 40° C. using a dry-block for 90 minutes. In a separate reaction evaluating the substrate concentration, 0.125 μM of purified A. niger β-glucosidase was incubated at 40° C. in a 96-well microtiter plate with 0, 0.5, 1, 2, 4, 8, 16 or 32 mM cellobiose or cellobiosan. Reactions were initiated by the addition of enzyme and quenched by boiling in a thin walled PCR tube at 0.5, 1, 5 and 10 minutes.
as §1, with “the” for “the β-glucosidase”, “periods,” for “period,”, “Agilent1100” for “Agilent 1100”, “ml min^−1.” for “mL/min.”, “(without the addition of” for “(without”

[2] = system: P. putida strains FJPO3 and KT2440; experiment: Growth of P. putida strains on cellobiose or cellobiosan with addition of abg β-glucosidase; assay type: cell-based, Pseudomonas putida
Experimental: Most growths were in a modified formulation of M9 minimal salts. Briefly, 6.78 g Na2PO4 (anhydrous), 3 g KH2PO4, and 0.5 g NaCl were dissolved in 750 mL deionized H2O. The pH was adjusted to 7.4 with 10 N NaOH and brought to 900 mL with H2O. The solution was autoclaved for 15 minutes at 121° C. and allowed to cool. One hundred μL of 1 M CaCl2 (100 μM final) and 2 mL of 1 M MgSO4-7H2O (2 mM Final), 1 mL of 100 mM FeSO4, (100 μM final) and 10 mL 1 M (NH4)2SO4 (10 mM final) was added. In the case of FIG. 2, 1 mM (NH4)2SO4, was used to induce mcl-PHA production.
Growth curves were generated using a Bioscreen C automated microbiology growth curve analysis system from Growth Curves USA. Overnight cultures were diluted to 0.02 OD in a total volume of 300 μL per well. Incubations were performed at 30° C. with continuous shaking and turbidity measurements (OD420-580) were collected every 15 minutes for the duration of the experiments. Spectrophotometric blanks were subtracted from the measured values and each growth curve represents the average of three independent cultures. The maximum specific growth rate (μmax) was calculated as the maximum slope of the log phase of the growth curve over any given 4 hour period during the course of the experiment. […]

## O[C@@H]1[C@@H](O)[C@@H]2OC[C@@H](O2)[C@H]1O [levoglucosan]
P. putida strain FJPO3; M9 medium, 7.5 g/L levoglucosan vs 7.5 g/L glucose, FIG. 2 Panel A
  growth profile of FJPO3 compared with glucose: similar
P. putida strain FJPO3; M9 medium, FIG. 2 Panel B
  concentration at which FJPO3 has the capacity to grow: ≤ 60 g/L
P. putida strain FJPO3; N-limited medium [M9 1mM (NH4)2SO4], levoglucosan as sole carbon source, FIG. 2 Panel C
  mcl-PHA production by FJPO3 (Nile Red fluorescence): produces mcl-PHAs

## bgl1A: P. chrysosporium β-glucosidase, GH3, GenBank AAC26489, SEQ ID NO: 4
[1]
  cleavage of cellobiosan to generate glucose and levoglucosan: able to cleave cellobiosan

B1: bglA: T. maritima β-glucosidase, GH1, GenBank CAA52276.1, SEQ ID NO: 5 (protein, listed as Thermotoga maritima)
chain: MNVKKFPEGFLWGVATASYQIEGSPLADGAGMSIWHTFSHTPGNVKNGDTGDVACDHYNRWKEDIEIIEKLGVKAYRFSISWPRILPEGTGRVNQKGLDFYNRIIDTLLEKGITPFVTIYHWDLPFALQLKGGWANREIADWFAEYSRVLFENFGDRVKNWITLNEPWVVAIVGHLYGVHAPGMRDIYVAFRAVHNLLRAHARAVKVFRETVKDGKIGIVFNNGYFEPASEKEEDIRAVRFMHQFNNYPLFLNPIYRGDYPELVLEFAREYLPENYKDDMSEIQEKIDFVGLNYYSGHLVKFDPDAPAKVSFVERDLPKTAMGWEIVPEGIYWILKKVKEEYNPPEVYITENGAAFDDVVSEDGRVHDQNRIDYLKAHIGQAWKAIQEGVPLKGYFVWSLLDNFEWAEGYSKRFGIVYVDYSTQKRIVKDSGYWYSNVVKNNGLED
[1]
  cleavage of cellobiosan to generate glucose and levoglucosan: able to cleave cellobiosan

B2: abg: Agrobacterium sp. β-glucosidase, GH1, GenBank AAA22085.1, SEQ ID NO: 6 (protein, listed as Agrobacterium sp.)
chain: MTDPNTLAARFPGDFLFGVATASFQIEGSTKADGRKPSIWDAFCNMPGHVFGRHNGDIACDHYNRWEEDLDLIKEMGVEAYRFSLAWPRIIPDGFGPINEKGLDFYDRLVDGCKARGIKTYATLYHWDLPLTLMGDGGWASRSTAHAFQRYAKTVMARLGDRLDAVATFNEPWCAVWLSHLYGVHAPGERNMEAALAAMHHINLAHGFGVEASRHVAPKVPVGLVLNAHSAIPASDGEADLKAAERAFQFHNGAFFDPVFKGEYPAEMMEALGDRMPVVEAEDLGIISQKLDWWGLNYYTPMRVADDATPGVEFPATMPAPAVSDVKTDIGWEVYAPALHTLVETLYERYDLPECYITENGACYNMGVENGQVNDQPRLDYYAEHLGIVADLIRDGYPMRGYFAWSLMDNFEWAEGYRMRFGLVHVDYQTQVRTVKNSGKWYSALASGFPKGNHGVAKG
[1]
  cleavage of cellobiosan to generate glucose and levoglucosan: able to cleave cellobiosan
[2]; cellobiosan, twenty micrograms of enzyme, 30° C., FIG. 6
  growth of FJPO3 and KT2440 in M9 medium containing cellobiosan plus abg: both FJPO3 and KT2440 are capable of utilizing the glucose component of cellobiosan
[2]; cellobiose, FIG. 6 Panel A
  growth profiles of KT2440 and FJPO3 in M9 medium containing cellobiose with addition of abg: virtually indistinguishable

B3: bgl1: A. niger β-glucosidase, GH3, GenBank AJ132386, SEQ ID NO: 3 (protein)
chain: MRFTLIEAVALTAVSLASADELAYSPPYYPSPWANGQGDWAQAYQRAVDIVSQMTLDEKVNLTTGTGWELELCVGQTGGVPRLGVPGMCLQDSPLGVRDSDYNSAFPAGMNVAATWDKNLAYLRGKAMGQEFSDKGADIQLGPAAGPLGRSPDGGRNWEGFSPDPALSGVLFAETIKGIQDAGVVATAKHYIAYEQEHFRQAPEAQGFGFNISESGSANLDDKTMHELYLWPFADAIRAGAGAVMCSYNQINNSYGCQNSYTLNKLLKAELGFQGFVMSDWAAHHAGVSGALAGLDMSMPGDVDYDSGTSYWGTNLTISVLNGTVPQWRVDDMAVRIMAAYYKVGRDRLWTPPNFSSWTRDEYGYKYYYVSEGPYEKVNQYVNVQRNHSELIRRIGADSTVLLKNDGALPLTGKERLVALIGEDAGSNPYGANGCSDRGCDNGTLAMGWGSGTANFPYLVTPEQAISNEVLKHKNGVFTATDNWAIDQIEALAKTASVSLVFVNADSGEGYINVDGNLGDRRNLTLWRNGDNVIKAAASNCNNTIVVIHSVGPVLVNEWYDNPNVTAILWGGLPGQESGNSLADVLYGRVNPGAKSPFTWGKTREAYQDYLVTEPNNGNGAPQEDFVEGVFIDYRGFDKRNETPIYEFGYGLSYTTFNYSNLEVQVLSAPAYEPASGETEAAPTFGEVGNASDYLYPSGLQRITKFIYPWLNGTDLEASSGDASYGQDSSDYLPEGATDGSAQPILPAGGGPGGNPRLYDELIRVSVTIKNTGKVAGDEVPQLYVSLGGPNEPKIVLRQFERITLQPSEETKWSTTLTRRDLANWNVEKQDWEITSYPKMVFVGSSSRKLPLRASLPTVH
modifications: Aspergillus niger
[1]
  cleavage of cellobiosan to generate glucose and levoglucosan: able to cleave cellobiosan
